The chains are these.
T1: IL-17 (IL-17A) (Homo sapiens, UniProt Q16552 Q16552:24-155)
T1 sequence: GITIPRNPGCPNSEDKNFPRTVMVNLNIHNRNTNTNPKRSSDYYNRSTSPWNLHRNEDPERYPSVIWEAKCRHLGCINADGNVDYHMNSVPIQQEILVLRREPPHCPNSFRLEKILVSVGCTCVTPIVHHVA

B1: aptamer No. 82 (mixed)
mixed: GGGUAGCCGGAGGAGTCAGTAAUCGGUACCC
modifications: g(M)g(M)g(M)u(M)a(M)g(S)c(M)c(M)Gg(M)a(M)gg(M)a(M)g(S)Tc(F)a(F)g(S)Ta(M)a(M)u(M)c(M)g(M)g(M)u(M)a(M)c(M)c(M)c(M)
B2: aptamer No. 94 (mixed)
RNA: GGGUAGCCGGAGGAGUCAGUAAUCGGUACCC
modifications: g(M)g(M)g(M)u(M)a(M)g(S)c(M)c(M)Gg(M)a(M)gg(M)a(M)g(S)u(F)c(F)a(F)g(S)u(F)aau(M)c(M)g(M)g(M)u(F)a(M)c(M)c(M)c(M)
B3: aptamer No. 56 (mixed)
mixed: GGGUAGCCGGAGGAGTCAGTAAUCGGUACCC
modifications: g(M)g(M)g(M)u(M)Ag(S)c(M)c(M)Gg(M)a(F)gg(M)a(M)g(S)Tc(F)a(F)g(S)Ta(M)a(M)u(M)c(M)g(M)g(M)u(F)a(M)CCC
B4: aptamer No. 86 (mixed)
mixed: GGGUAGCCGGAGGAGTCAGTGAUCGGUACCC
modifications: g(M)g(M)g(M)u(M)a(M)g(S)c(M)c(M)Gg(M)a(M)gg(M)a(M)g(S)Tc(M)a(F)g(S)Tg(M)a(M)u(M)c(M)g(M)g(M)u(M)a(M)c(M)c(M)c(M)
B5: aptamer No. 75 (mixed)
mixed: GGGUAGCCGGAGGAGTCAGTAAUCGGUACCC
modifications: g(M)g(M)g(M)u(M)a(M)gc(M)c(M)gg(M)a(F)gg(M)a(M)gTc(F)a(F)gTa(M)a(M)u(M)c(M)g(M)g(M)u(F)a(M)c(M)c(M)c(M)
B6: aptamer No. 89 (mixed)
mixed: GGGUAGCCGGAGGAGTCAGTAAUCGGUACCC
modifications: g(M)g(M)g(M)u(M)a(M)g(S)c(M)c(M)Gg(M)a(M)gg(M)a(M)g(S)Tc(M)a(F)g(S)Taa(M)u(M)c(M)g(M)g(M)u(M)a(M)c(M)c(M)c(M)
B7: aptamer No. 77 (mixed)
RNA: GGGUAGCCGGAGGAGUCAGUAAUCGGUACCC
modifications: g(M)g(M)g(M)u(M)a(M)gc(M)c(M)gg(M)a(F)gg(M)a(M)gu(F)c(F)a(F)gu(F)a(M)a(M)u(M)c(M)g(M)g(M)u(F)Ac(M)c(M)c(M)
B8: aptamer No. 76 (mixed)
RNA: GGGUAGCCGGAGGAGUCAGUAAUCGGUACCC
modifications: g(M)g(M)g(M)u(M)a(M)gc(M)c(M)Gg(M)a(F)gg(M)a(M)gu(F)c(F)a(F)gu(F)a(M)a(M)u(M)c(M)g(M)g(M)u(F)Ac(M)c(M)c(M)
B9: aptamer No. 93 (mixed)
RNA: GGGUAGCCGGAGGAGUCAGUAAUCGGUACCC
modifications: g(M)g(M)g(M)u(M)a(M)g(S)c(M)c(M)Gg(M)a(M)gg(M)a(M)g(S)u(F)c(F)a(F)g(S)u(F)a(M)au(M)c(M)g(M)g(M)u(F)a(M)c(M)c(M)c(M)
B10: aptamer No. 53 (mixed)
mixed: GGGUAGCCGGAGGAGTCAGTAAUCGGUACCC
modifications: g(M)g(M)g(M)u(M)Ag(S)c(M)c(M)Gg(M)a(F)gg(M)a(M)gTc(F)a(F)g(S)Ta(M)a(M)u(M)c(M)g(M)g(M)u(F)a(M)CCC
B11: aptamer No. 70 (mixed)
RNA: GGGUAGCCGGAGGAGUCAGUAAUCGGUACCC
modifications: g(M)g(M)g(M)u(M)a(M)g(S)c(M)c(M)Gg(M)a(F)gg(M)a(M)g(S)u(F)c(F)a(F)g(S)u(F)a(M)a(M)u(M)c(M)g(M)g(M)u(F)a(M)c(M)c(M)c(M)
B12: aptamer No. 78 (mixed)
mixed: GGGUAGCCGGAGGAGTCAGTAAUCGGUACCC
modifications: g(M)g(M)g(M)u(M)a(M)gc(M)c(M)Gg(M)a(F)gg(M)a(M)gTc(F)a(F)gTa(M)a(M)u(M)c(M)g(M)g(M)u(M)a(M)c(M)c(M)c(M)
B13: aptamer No. 80 (mixed)
RNA: GGGUAGCCGGAGGAGUCAGUAAUCGGUACCC
modifications: g(M)g(M)g(M)u(M)a(M)g(S)c(M)c(M)Gg(M)a(F)gg(M)a(M)gu(F)c(F)a(F)gu(F)a(M)a(M)u(M)c(M)g(M)g(M)u(F)Ac(M)c(M)c(M)
B14: aptamer No. 84 (mixed)
RNA: GGGUAGCCGGAGGAGUCAGUAAUCGGUACCC
modifications: g(M)g(M)g(M)u(M)a(M)g(S)c(M)c(M)Gg(M)a(M)gg(M)a(M)g(S)u(F)c(F)a(F)g(S)u(F)a(M)a(M)u(M)c(M)g(M)g(M)u(M)a(M)c(M)c(M)c(M)
B15: aptamer No. 72 (mixed)
RNA: GGGUAGCCGGAGGAGUCAGUAAUCGGUACCC
modifications: g(M)g(M)g(M)u(M)a(M)g(S)c(M)c(M)Gg(M)a(F)gg(M)a(M)gu(F)c(F)a(F)gu(F)a(M)a(M)u(M)c(M)g(M)g(M)u(M)a(M)c(M)c(M)c(M)
B16: aptamer No. 91 (mixed)
mixed: GGGUAGCCGGAGGAGTCAGTAAUCGGUACCC
modifications: g(M)g(M)g(M)u(M)a(M)g(S)c(M)c(M)Gg(M)a(M)gg(M)a(M)g(S)Tc(M)a(F)g(S)Taau(M)c(M)g(M)g(M)u(M)a(M)c(M)c(M)c(M)
B17: aptamer No. 69 (mixed)
RNA: GGGUAGCCGGAGGAGUCAGUAAUCGGUACCC
modifications: g(M)g(M)g(M)u(M)a(M)g(S)c(M)c(M)Gg(M)a(F)gg(M)a(M)gu(F)c(F)a(F)gu(F)a(M)a(M)u(M)c(M)g(M)g(M)u(F)a(M)c(M)c(M)c(M)
B18: aptamer No. 87 (mixed)
mixed: GGGUAGCCGGAGGAGTCAGTGAUCGGUACCC
modifications: g(M)g(M)g(M)u(M)a(M)g(S)c(M)c(M)Gg(M)a(M)gg(M)a(M)g(S)Tc(M)a(F)g(S)Tga(M)u(M)c(M)g(M)g(M)u(M)a(M)c(M)c(M)c(M)
B19: aptamer No. 81 (mixed)
mixed: GGGUAGCCGGAGGAGTCAGTAAUCGGUACCC
modifications: g(M)g(M)g(M)u(M)a(M)g(S)c(M)c(M)Gg(M)a(M)gg(M)a(M)g(S)Tc(M)a(F)g(S)Ta(M)a(M)u(M)c(M)g(M)g(M)u(M)a(M)c(M)c(M)c(M)
B20: aptamer No. 73 (mixed)
RNA: GGGUAGCCGGAGGAGUCAGUAAUCGGUACCC
modifications: g(M)g(M)g(M)u(M)a(M)g(S)c(M)c(M)Gg(M)a(F)gg(M)a(M)g(S)u(F)c(F)a(F)g(S)u(F)a(M)a(M)u(M)c(M)g(M)g(M)u(M)a(M)c(M)c(M)c(M)
B21: aptamer No. 79 (ssRNA)
RNA: GGGUAGCCGGAGGAGUCAGUAAUCGGUACCC
modifications: g(M)g(M)g(M)u(M)a(M)gc(M)c(M)gg(M)a(F)gg(M)a(M)gu(F)c(F)a(F)gu(F)a(M)a(M)u(M)c(M)g(M)g(M)u(M)a(M)c(M)c(M)c(M)

The data set concerns the target T1, IL-17 (IL-17A). As to the kind of experiment: cell_activity; IL-6 release, NIH3T3. Conditions: chain copies: 2. As to the method: First, human IL-17 and the aptamer produced in Example 1-2 were pre-incubated at 37° C. for 30 min, and added to NIH3T3 cell (ATCC, CRL1658) together with mouse TNFα (2 ng/mL). Then, after incubation for 24 hr, the culture supernatant was collected, and the production amount of IL-6 was measured by ELISA method described below. The IL-17 inhibitory action of each aptamer was determined from the production amount of IL-6. For comparison with the aptamer of the present invention, a conventionally-known aptamer (aptamer No. 50) against IL-17 was used.
ELISA method for verifying IL-17 inhibitory action of aptamer: A microtiter plate for ELISA was coated with rat anti-mouse IL-6 antibody (BD Biosciences, 2 μg/mL; 100 μL/well) diluted with PBS, and incubated at 4° C. overnight. The next day, the microtiter plate was washed 3 times with PBS/0.05% Tween 20, and applied blocking with PBS/1% BSA (200 μL/well) at room temperature for 2 hr. Then, the plate was washed 3 times with PBS/0.05% Tween 20. Recombinant mouse IL-6 (BD Biosciences; 100 μL/well) serially diluted with PBS/1% BSA/0.05% Tween 20 or culture supernatants (100 μL/well) were added to the plate. After incubation at room temperature for 2 hr, the plate was washed 3 times with PBS/0.05% Tween 20. Then, 100 μL/well of biotin conjugated rat anti-mouse IL-6 antibody (BD Biosciences) was added to the plate at final dilution of 1/500, and the mixture was reacted at room temperature for 1 hr. After washing 3 times with PBS/0.05% Tween 20, 100 μL/well of alkaline phosphatase conjugated streptavidin was added at final dilution of 1/1000. After 30 min at room temperature, the plate was again washed 4 times with PBS/0.05% Tween 20, and a substrate (1-Step PNPP; Thermo Fisher Scientific Inc; 100 μL/well) was added. After 15 min, aqueous sodium hydroxide solution (2N: 50 μL/well) was added to stop the reaction, and the plate was read on a microtiter reader (Bio-Rad) by using a 405 nm filter.
The term IC50 denotes the concentration at which inhibition is half-maximal. In turn, B1 yielded a concentration for half-maximal inhibition (IC50) of 0.48 nM. With B2 the figure was 0.29 nM; with B3, 0.52 nM; with B4, 5.16 nM.

Take B5: half-maximal inhibition (IC50) was put at 1.33 nM. Next, B6: 6.21 nM; B7: 4.66 nM; B8: 1.7 nM. As for B9, half-maximal inhibition (IC50) required 0.22 nM. With B10 the figure was 1.67 nM; with B11, 3.28 nM; with B12, 1.36 nM. Regarding B13, the concentration for half-maximal inhibition (IC50) is 1.52 nM. The molecule B14 yielded an IC50 of 1.04 nM. B15 yielded an IC50 of 2.24 nM.

In turn, B16 registered an IC50 of 3.86 nM. B17 gave an IC50 of 1.73 nM. With B18 the figure was 3.23 nM; with B19, 2.26 nM; with B20, 3.46 nM. B21 returned an IC50 of 2.25 nM.

Source of the values: patent publication US20160046944, “APTAMER TO IL-17 AND USE THEREOF” (THE UNIVERSITY OF TOKYO, published 2016).
